Assay: soluble on expression in E. coli; label from the status in PepcDB or PDB records

Sequence	soluble on expression in E. coli
MAVSTVTGAAGIGLATLAADGSVLDTWFPAPELTESGTSATSRLAVSDVPVELAALIGRDDDRRTETIAVRTVIGSLDDVAADPYDAYLRLHLLSHRLVAPHGLNAGGLFGVLTNVVWTNHGPCAIDGFEAVRARLRRRGPVTVYGVDKFPRMVDYVVPTGVRIADADRVRLGAHLAPGTTVMHEGFVNYNAGTLGASMVEGRISAGVVVGDGSDVGGGASIMGTLSGGGTHVISIGKRCLLGANSGLGISLGDDCVVEAGLYVTAGTRVTMPDSNSVKARELSGSSNLLFRRNSVSGAVEVLARDGQGIALNEDLHANGVPRGLEHHHHHH	soluble
IGDFHYGIGASMSYLNTEVVNVNQAYQEYDYLYTKGNRIGQMYGLEAIGFFNSQQEINNSPQQTFSDVAPGDVKYKDQNGDNRIDEKDIVKMFGSSVPRFYFGFNLNFSYKRLELSADFQGMTGVTVSLLNSPLYSPLVSNGNISNTFLNEEISWTPENKTNATMPRLTTQENLNNYRASSLWYRDGSFLKLRNLLVAYTFPKSQTRFADLKVFVQGTNLFSLDNIHFADPEQLGIAYPSTRSYWAGIKLNF	not soluble
TPNEMGYLHVIENLTKKRMTPLRPPTEKEAFKGQLSAAVETIESDLEENGLDKYLESAEALLEKYSATDLAALLLKTVAKDPADAVPVKITPERPLPSNKKGFNKNGR	not soluble
MSKSSNSDSQKSLPSPGHPSTGRPDLDLITDPLEEQRLEPQRDSHRSDTRGHPSTGRKSHNSTSAQSSVYNSRTDPENAAMDSDEELRKMMEGFVDDEESDPTYEPP	soluble
MVVRVDETTAPLFRQIAALIEDSIVEGSLSSGERAPSTNELAAFHSINPATARKGLQLLVDAGVLEKKRGLGMFVTDNAVELIRGRRRDDFAAAYLAPLVDEAVKLTISKTELHNLIDRVAESRGLYE	soluble
KNFDGDLNDYRQWRLAQENAAVAPAASAQSQSRKDTKRIEAQIRQEKARRGKPIQQKIDRAEKEMAQLSEIQTACEAFLAQEEAYFEENKEKLQDTLSELAKVKTQLAQIEEVWLACQEELEQIETEIEKQFAER	not soluble
IDIKDVELTADNGKPVYATFFCPKEEIKAAVVIAPALGVDKIFYQDFALWLASYGYLVTTFDYSSMGSADKVHYKESDTTITDWAVFDCKKILEQVSIEIKDKD	not soluble
MAGHSIPHFQNDGGHSVIEIGVKEFMCTGASVPFDHPHIFIDMGDDNEKVCSYCSTLYRYNPSLKAEQTNPPGCVFHVKAA	not soluble
MLLAHISDTHFRSRGEKLYGFIDVNAANADVVSQLNALRERPDAVVVSGDIVNCGRPEEYQVARQILGSLNYPLYLIPGNHDDKALFLEYLQPLCPQLGSDANNMRCAVDDFATRLLFIDSSRAGTSKGWLTDETISWLEAQLFEGGDKPATIFMHHPPLPLGNAQMDPIACENGHRLLALVERFPSLTRIFCGHNHSLTMTQYRQALISTLPGTVHQVPYCHEDTDPYYDLSPASCLMHRQVGEQWVSYQHSLAHYAGPWLYDENISCPTEER	soluble
AMSNNKIKRKDASPEQEAIESFTSLTKCDPKVSRKYLQRNHWNINYALNDYYDKEIGTFTDEVSTVAHPPVYPKELTQVFEHYINNNLFDIDSLVKFIEELGYNLEDLATLCLAHLLGYKKLEEPLKREDFLSTWFMQGCSTISDMQECIKTLDVKLHEDLQYFTQIYNYAFNLILDPNRKDIDTDEGIQYWKLFFQPEYPVRMEPDLLEAWFRFLRDEGKTTISKDTWRMLLLFFKRYPTIQKIISDYDETAAWPFIIDEFYECLQDQQ	soluble
MGSQAAHMMSMDFEDFPVESAHRILTPRPTVMVTTVDEEGNINAAPFSFTMPVSIDPPVVAFASAPDHHTARNIESTHEFVINITPADIIERMWVTARDIPAGENELEAAGLAWTSSRRVKPPRIVEAPGHLECELLRMFEVGDHNLITGSVVSASVRSGAVKEGLLDVESVKPVLHVGGNKFVVGD	not soluble
IDEKGRVIIAGIGRFGQVVNRLVRMSGIETVVLDHDMAAVQIMRRFGVKGFFGDPTRPELLQAAGLAEATVLVVAVDDRENAIKIVRYARQVRPDLHIVSRARDRVHVYELYQAGADDIVRETFDSSIRAGRYVLENMGF	not soluble
MLINVNFNELLLELDSLSVYRNLLNDSVIKKLYELGDLIYKKEPGTDEFIKKYNEFFFELTSGSIQSLKEHIIELILFDENPYSRQSEKLPFENIDKVLIDAASKDLDRLHVISALTSRKFKDYALENICKSESEKRFIDSLPAWEFDGRSNQGKRKLSQNCQKMIDVLVSSNKWGECVKNLSDFYFTNGSGIFARYHAFVWEPSEKPSLRGVEFPDPIRLSDFIGYEQQRLEVIENTEKFVRGLPANNVLLYGDRGTGKSSTVKAIANEYREQGLRIIEIPRKYLVDFPAVLKLIKGRSCKFIIFIDDLAFEDSEESYTVLKSVLEGGVENRPDNVLIYATSNRRHLIKEKFSDRAGFKSDDPDDEIRAQDTMQEKLSLSERFGITVVFSSPDKKQFLQIVEGLVAKRGINIDKDTLQREAMKWELMYNGRSARTARQFVDWLEGSMKLKK	soluble
MSLKVLICDDDKIVRDDIANIAKESGYVDYVKKVKDGIEAIEFIKNEKIDLLIIDIDMPYKNGIDSAEEILSIDKDIHIVFVTGFADYSLESFKVHPIDFVVKPFKKEKILDSINIAIDHINSHKIANNNFIEDTLFVYKIRKQIHMINFDDIVMFEKNSRAINLHTKDEDIIKFYENFDDLKKRLPPNFFMTHRQYIVNLRFIHKVIPINKSSLEIRFINFQENAILNKSLEKDFLYRFYREGHHHHHH	not soluble
MGSDKIHHHHHHMTEQVMNKHQLETGLSILGAPVPGQEIVLNEGALSLLEVLCDQFAAEVPKLLEMRRQKQELIDKGSLPDFLPETRAIRDGDWQIRGIPQDLQDRRVEITGPVDRKMIINALNANVKVFMADFEDSLAPSWIKVIQGQINLRDAVRGEIEYTAPETGKHYTLDDDPAVLIARVRGLHLKEKHVAFNGEAIPGALFDFCLYFYHNYRQLLEKGSGPYFYIPKLESHVEARWWAKVFAYVEERFCLTPGTIKCTCLIETLPAVFEMEEILYELRSNIVALNCGRWDYIFSYIKTLKKHSDRILPDRQAVTMDKPFLSAYSRLLIKTCHKRGALAMGGMAAFIPAKDQAQNEAVLVKVRGDKELEARNGHDGTWVAHPGLADTAMGIFNEYIGEDHVNQLHITRDVDAPILARDLLMPCEGERTESGMRLNIRIALQYIEAWIRGNGCVPIYGLMEDAATAEISRTSIWQWIQHEQKLSNGKLVTKALFKEMLVEELANVKLEVGPDRFTHGSFTQAAVLLEEITTADELVDFLTLPGYEILTQGDNA	not soluble
MSLIPSSGPSAKKVVSLGQQSEAQIPEVELIDVNHAVAQSLYKAQVNQSFTQFGDGYASTGTLNIGDVLDIMIWEAPPAVLFGGGLSSMGSGSAQQTKLPEQLVTARGTVSVPFVGDISVVGKTPGQVQEIIKGRLKKMANQPQVMVRLVQNNAANVSVIRAGNSVRMPLTAAGERVLDAVAAVGGSTANVQDTNVQLTRGNVVRTVALEDLVANPRQNILLRRGDVVTMITNPYTFTSMGAVGRTQEIGFSARGLSLSEAIGRMGGLQDRRSDARGVFVFRYTPLVELPAERQDKWIRQGYGSEAEIPTVYRVNMADAHSLFSMQRFPVKNKDVLYVSNAPLAEVQKFLSFVFSPVTSGANSINNLTNEGHHHHHH	soluble
MNPIVVLGSKVVDGQVTGLLASRLEKAIEVSSLTPEAPVVVSGFGEAAAMADYLRARGVTTIVEEPWATSTNENLENAHALFPDTLQWTVVTSGFHAWRTYLWAWHLGIPIKVVTARTPSAERLGMAMRECFALPHSTLRVLWRKIRTPKNLEHHHHHH	soluble
SRQHTSISDYDVMILDLTDVPMLDVTVGLALENAIKDALDARCEVYLLCPNQRTREQLEKFHVIDLVPDNNMYQFRYEALNAAVAHVESDQYQRMTA	not soluble
MQQQCDTVSAWQSLRGPGTGGYYLFKTTEGGKTDCTYVKGSNFNDAAQTATYTYGNMGSGNQMTQQTASASISGNAIVVGTDHSEVMYSDGSTCDVVRLNGQIELWIHSSATSNTGNLNSCCTDKFNQEKGSRPEHVVYRSTCPNMPQ	soluble
MRGLSLSPVVLPEVRREAGVELRKARLEDVDAIYWLIRYWAEKGLMLVRSHSHLYENIRDFWVLEDEDGQIVGTVALHVLWRDLAEIRGLAVHPTRQGQGLGRWLVLGAEREARDLGLPRVFAWTLQVNFFRALGYRVTSR	not soluble

Source: the DeepSol protein solubility set
